The results in this text go back to patent US20110313230A1 (LUDWIG INSTITUTE FOR CANCER RESEARCH, published 2011).

The target of test [1] is T1, de2-7 EGFR unique junctional peptide (human).
T1 construct: non-biotinylated; also called Junction Peptide
T1 peptide: LEEKKGNYVVTDH-OH
Kind of test: dot-blot immune stain.
Protocol: Dot-blot immune stain experiments were also performed. Serial dilutions of peptide were spotted in 0.5 μl onto a PVDF or nitrocellulose membranes.

Test [2] addresses T2, Peptide C: LEEKKGNYVVTDH(K-Biot)-OH (biotin on the added C-terminal Lys (K-Biot)).
T2 construct: also called C-terminal biotinylated de2-7 peptide
T2 peptide: LEEKKGNYVVTDHK
Kind of test: BIAcore, Peptide C on streptavidin chip. (SPR reads the build-up and loss of mass on a sensor chip optically.)
Protocol: Serial dilutions of mAbs were tested for reactivity with the peptide. Blocking experiments using non-biotinylated peptide were performed to assess specificity.

The target of test [3] is T3, biotinylated de2-7 specific peptide Biotin-LEEKKGNYVVTDH (human).
T3 construct: also called unique de2-7 EGFR peptide
T3 peptide: Biotin-LEEKKGNYVVTDH
Kind of test: ELISA on biotinylated peptide on streptavidin plates. (In an ELISA, binding on a coated surface is turned into a signal by an enzyme label.)
Protocol: Two types of ELISA were used to determine the specificity of the antibodies. […] Antibodies were added to wells in triplicate at increasing concentration in 2% HSA in phosphate-buffered saline (PBS).
Antibodies were bound and detected as in the first assay.

For test [4], the target named is T4, EGFR fragment 475-621 displayed on yeast (human, UniProt P00533 499-645).
T4 construct: yeast surface display, C-terminal c-myc tag
Kind of test: flow cytometry on yeast-displayed, c-myc-tagged EGFR fragment (native).
Protocol: (§1) Briefly, transformed colonies were grown at 30° C. in minimal media containing yeast nitrogen base, casein hydrolysate, dextrose, and phosphate buffer pH 7.4, on a shaking platform for approximately one day until an OD₆₀₀ of 5-6 was reached. […] Cultures were then stored at 4° C. until analysis. […] The cells were then washed with ice cold FACS buffer and incubated with phycoerythrin-labelled anti-mouse IgG (1:25 dilution), in a final volume of 50 μl for 1 h at 4° C., protected from light. After washing the yeast cells with ice-cold FACS buffer, fluorescence data was obtained with a Coulter Epics XL flow cytometer (Beckman-Coulter), and analyzed with WinMDI cytometry software (J. Trotter, Scripps University). For determination of linear versus conformational epitopes, yeast cells were heated at 80° C. for 30 min, then chilled on ice 20 min prior to labeling with antibodies.

In test [5] the target is T5, EGFR fragment 1-294 displayed on yeast (human, UniProt P00533 25-318).
T5 construct: yeast surface display, C-terminal c-myc tag
Kind of test: flow cytometry on yeast-displayed, c-myc-tagged EGFR fragment (native), indirect immunofluorescence.
Protocol: as §1

Test [6] deals with T6, anti-idiotype antibody LMH-12.
T6 construct: mouse IgG1 kappa
Kind of test: sandwich ELISA: plate coated with 10 µg/ml LMH-12, detection with biotinylated LMH-12 (10 µg/ml), avidin-HRP and ABTS.

Test [7] addresses T7, EGFR fragment 1-176 displayed on yeast (human, UniProt P00533 25-200).
T7 construct: yeast surface display, C-terminal c-myc tag
Kind of test: flow cytometry on yeast-displayed, c-myc-tagged EGFR fragment (native); fragment printed '1-716' on the sheet, 1-176 in the text. (In general: In flow cytometry, cells or beads pass a laser one at a time.)
Protocol: as §1

Where no end group is shown, it is not given here. The star is where a group is joined. Biotin = O=C1N[C@H]2[C@H](CS[C@H]2CCCCC(=O)*)N1

B1: mAb806 (antibody, V domains shown)
VH: DVQLQESGPSLVKPSQSLSLTCTVTGYSITSDFAWNWIRQFPGNKLEWMGYISYSGNTRYNPSLKSRISITRDTSKNQFFLQLNSVTIEDTATYYCVTAGRGFPYWGQGTLVTVSA
VL: DILMTQSPSSMSVSLGDTVSITCHSSQDINSNIGWLQQRPGKSFKGLIYHGTNLDDEVPSRFSGSGSGADYSLTISSLESEDFADYYCVQYAQFPWTFGGGTKLEIKR
notes: murine IgG2b
In the case of B1, the binding result in test [1] is reported as “no binding”; in test [2], “no binding (tested: 100 nM)”; in test [3] it was “no binding”; in test [4], “no binding (tested: 10 µg/ml)”; in test [5], “no binding (tested: 10 µg/ml)”; in test [7] it was “no binding (tested: 10 µg/ml)”. In addition, the EC50 (read off the curve) (in general, the concentration that produces a half-maximal response) in test [6] was about 0.07 µg/mL.
